Test results as given in article PMC11617999.
“And” between values parts separate entries of the source, which are not always exact repeats. Equal entries are not always repeated. One block for each substance: values may come before it.

Legend:
[1] = biological target: His-tagged FakB2 (Staphylococcus aureus) (S. aureus); assay: BLI; His-FakB2 (2 ug/mL) immobilised on Ni-NTA biosensor tips, blocked with 0.1 mg/mL BSA; varying concentrations of untagged FakA, 5 min association, 10 min dissociation; 50 mM Tris HCl pH 7.4, 150 mM KCl, 1 mM TCEP, 5% glycerol, 10 mM MgCl2; Octet RED96e; fitted 1:1 and with a bivalent analyte model
[2] = biological target: Fatty acid kinase FakA, wild type (Staphylococcus aureus) (S. aureus); assay: mass photometry; kinetic mass photometry, initial reading (0 min) after dilution to 10 nM; room temperature; 50 mM Tris pH 7.4, 150 mM KCl, 1 mM TCEP, 10 uM ZnSO4; dimer to monomers
[3] = biological target: Fatty acid kinase FakA, wild type (Staphylococcus aureus) (S. aureus); assay: mass photometry; kinetic mass photometry, 20 min after dilution to 10 nM (equilibrium); room temperature; 50 mM Tris pH 7.4, 150 mM KCl, 1 mM TCEP, 10 uM ZnSO4; dimer to monomers
[4] = biological target: His-tagged FakB2 (Staphylococcus aureus) (S. aureus); assay: BLI; additional studies as a1 but FakB loaded at a range of 2 to 20 ug/mL
[5] = biological target: Fatty acid kinase FakA, wild type (Staphylococcus aureus) (S. aureus); assay: SEC-SAXS; size-exclusion chromatography coupled with small-angle X-ray scattering of FakA in solution; AlphaFold dimer model refined with BilboMD, envelopes by DAMMIF and DENSS
[6] = biological target: FakA H282A, H284A variant (Staphylococcus aureus) (S. aureus); assay: mass photometry; kinetic mass photometry, initial reading (0 min) after dilution to 10 nM; room temperature; 50 mM Tris pH 7.4, 150 mM KCl, 1 mM TCEP, 10 uM ZnSO4; dimer to monomers
[7] = biological target: FakA H282A, H284A variant (Staphylococcus aureus) (S. aureus); assay: mass photometry; kinetic mass photometry, 20 min after dilution to 10 nM (equilibrium); room temperature; 50 mM Tris pH 7.4, 150 mM KCl, 1 mM TCEP, 10 uM ZnSO4; dimer to monomers
[8] = biological target: His-FakB2 (fatty acid binding protein FakB2, Staphylococcus aureus) (S. aureus); assay: BLI; Octet RED96e; His-FakB2 (2 ug/mL) immobilised on Ni-NTA biosensor tips, blocked with 0.1 mg/mL BSA; untagged FakA 1.65-133.3 nM in solution, 5 min association, 10 min dissociation; 50 mM Tris HCl pH 7.4, 150 mM KCl, 1 mM TCEP, 5% glycerol, 10 mM MgCl2; 1:1 binding model (1 FakB2:1 FakA binding site)

Kd [1]: 4.34 nM | percent of protein in the dimer peak [2]: 77% | percent of protein in the dimer peak [3]: 57% | Kd [4]: 4.34 to 15 nM and 10.6 nM | stoichiometry N [5]: 2
Substance: Fatty acid kinase FakA, wild type (Staphylococcus aureus) (enzyme)

Substance: FakA H282A, H284A variant (Staphylococcus aureus) (enzyme)
percent of protein in the dimer peak [6]: 63% | percent of protein in the dimer peak [7]: 24%

koff [8]: 0.000686 s⁻¹ | kon [8]: 158000 M⁻¹ s⁻¹
Substance: FakA (fatty acid kinase, Staphylococcus aureus), untagged (enzyme)
